The results in this text go back to a protein production outcome set (Wang et al. 2014).

This data set is described as follows: label from the status in PepcDB records.

“ASKAFYSAGDKLFQPGDDAVASMQTYSVAQFLQPFTLNPAKASSDYLGKWVKVRGVIVDIRRKSGIAGSYYFIVTMRDEQNKTDKRLTFNFGSHNSADVEALSNGSVATIVGQVHQVQDSTIPTLQNPKVVK”: the protein production entry is listed as “not failed”.

For the sequence “ATHIIFTTHENSDGDGLGSQVALALALKALGKEVAIFNPTEVPPNYLFLKELHEINLFRDRDEESMQEFFLADLLVVLDANLHDRIGRLWPHVEFARQMSRLKVLCIDHHLEPEDFADITVCETYASSTGELVCDLVTALELRTGQQLFTPEVASALYAAIMTDTGSFRFPKTTPYTYRLAGMLVEKGADPELVYDRIYNAL”, the protein production result is “failed”. With “AVGKNKGLSKGGKKGGKKKVVDPFSRKDWYDVKAPNMFQTRQIGKTLVNRTQGQRIASDYLKGRVFEVSLADLQKDIDPERSFRKFRLIAEDVQDRNVLCNFHGMDLTTDKYRSMVKKWQTLIEAIVEAKTVDGYLLRVFCIGFTAKDQQSQRKTCYAQQSQVRKIRARMTDIITNEVSGADLKQLVNKLALDSIAKDIEKSCQRIYPLHDVYIRKVKVLKKPRFDVSKLLELHGDGGGKSVEAVVSSEGAVIDRPEGYEPPVQESV”, the protein production entry is “failed”. The result for “AVSFTGVSGVKNIVAVTACPTGVAHTFMSAEAIEAYAKKQGWNVKVETRGQVGAGNEITVEEVAAADLVFVAADIDVPLDKFKGKPMYRTSTGLALKKTEQEFDKAFKEAKIF” reads “failed”; that for “CPLLLRVFTTNNGRHHRMDEFSRGNVPSSELQIYTWMDATLKELTSLVKEVYPEARKKGTHFNFAIVFTDVKRPGYRVKEIGSTMSGRKGTDDSMTLQSQKFQIGDYLDIAIT”, “failed”; that for “DCYKNFVAKKCAGCKNPITGFGKGSSVVAYEGQSWHDYCFHCKKCSVNLANKRFVFHQEQVYCPDCAKKL”, “not failed”.

For “DDAGKRHVYVKEIATGTVKRAIEEKDELIKGYGWINDERLFFVMDKGGNENYHLFASNIDGSNTRDLTPFDGVKASILNMLKEQKDYMIISMNKNNPQIFEPYKLNVVTGELTQLYENKDAANPIQGYEFDKDGELRGYSRLVNGIESELYYKDLATGEFRLLKKTHWDDTFGVIAFNYASKNKDEAYVLTNLDSDKTRIVLYDLKQNKIIREIFANEDYDVSGLHLSRKRNYEIDLMAYEGEKSVVVPVSATYKELHKLMEKEFKGKEFSVVDYDDDETILLIAVQSDKLYGTYYQFDTRTKKFTLLYDLMPQLKEEDMAEMRPIKFKSRDGLTIHGYITLPKAALEGKKVPLIVNPHGGPQGIRDSWGFNPETQLFASRGYATLQVNFRISGGYGKEFLRAGFKQIGRKAMDDVEDGVRYAISQGWVDPDRIAIYGASHGGYATLMGLVKTPDLYACGVDYVGVSNIYTFFDSFPEYWKPFKEMVKEIWYDLDNPEEAAIAKEVSPFFQIDKINKPLFVVQGANDPRVNINESDQIVTALRARGFEVPYMVKYNEGHGFHREENSMELYRAMLGFFAKHLK”, the protein production entry is “failed”. On to “DDRQEEKMIKENVYFDGNVKSLGFSQQDGESTVGVMAPGQYTFGTGAPERMTVVKGALTIKRVTDADWVTFTAGEAFEVAGNSSFDLQVEVATAYLCEFL”, for which the protein production result was “failed”. Consider “DEIFCRVYMPDHSYVTIRSRLSASVQDILGSVTEKLQYSEEPAGREDSLILVAVSSSGEKVLLQPTEDCVFTALGINSHLFACTRDSYEALVPLPEEIQVSPGDTEI”, for which the protein production result is “not failed”. For “DFLDVQKETPRIRIAIDRVGVKNIKFPLKIHDDFAFLTLNLFVDVPADRKGADMSRAVESIQKVINAGSYGERIGDIGIAICDEALSRFNYSEKAQCEVNIQYYRRSGERYLEYRMYVETAKDRKQIMKNEIGISYVTMTACPCAMETTRALISMDNPDISDAISAIPTITHNQRNVTKLTVDNRSKMITVWDLADVMERVQGKPLDSLLKRVEEGRLVYSAHRNPKFVEDVVREIAYEAARVLGVPDEATIKVSSESDESIHPHNAYAEIDT” the value was “failed”.

For the sequence “DGKVTKVFSSPLMARVQDLSSCAFPAPRISAEKTAAHEVDKDTITYTITVRNSGNLEATGTKFTDNLPGSYVPNSAKLNG”, the protein production result is reported as “failed”. On to “DGQTYQIGFEMRLPVSWNGRFLYQGNGGTDGNIATATGQVGSGGMLSNALKDGFAVISSDAGHSSAQNPLFGLDPQARINYGYGAITKLTPMAKDLIKTAYGKLPDRSYAGGTSNGGRHAMMAATRLGDQYDGILASTPGFHLPRAAAAQLYTAQQLRRVATDENDLSTALTYAERNVLANAILTRCDALDGVADGMVQDVEACRTAFDIHKDVPVCSGSRDGSCLSKDQIDVVANIYRGPVNSSGEALYATQPYDPGLLGSNWASWKFVSSVGTARDPVAVGIIFQVPPDPTIVQNSRKFAFNYNFDTDYPKLSATNSTYSESAMSFMIPPDELNLDKLRLHGGKMIVVQGTADGVFSVDDTQNWYDKLMAKYKSSSLGDAQSFARFYRVPGMNHSRGGLATDQFDALTALVNWVEYGQA”, for which the protein production result is reported as “failed”.

For the sequence “DIEALTLLEIADPIREDAAETLEYLRSEDVTLKIISGDNPVTVSHIAHQAGFADYQSYIDCSKVSDEELEALAEDTAIFGRVSPHQKKLLIQTLNANGHTTAMTGDGVNDILALREADCSIVMAEGDPATRQIANLVLMDSEFKDIPE”, the protein production entry is listed as “failed”.

As to “DKCKKVYENYPVSKCQLANQCNYDCKLDKHARSGECFYDEKRNLQCICDYCEY”, the protein production entry is on record as “not failed”. The result for “DNAMEEEIQSIMKIERDLFLAIKNKEFVIHYQPKVDSSTGNIIGSEALIRWLHPSLGMVGPNKFIPIAEKNGLINNIGRWLIQEVFITINKWISEGINVLPVSINLSRVELYKNDLVDFFKLMFNTYNIPKELIELEITETTALRDVKFISERLYEIKSLGMNISLDDFGVGNSNFINLKGIPLDIIKIDRSLILDIVTNTKTKFMVKAIVNLSHDLNVTVICEGVEDMHQVKVLSELGCNFIQGYVFFKP” reads “failed”.

Regarding “DNDAIYYPVGDVDIERGGPALEVGEEDVLVARSFNEEDYVLDTIAQYPNDPTLGKLTFMIDLKNQQKDQNVADFNGVGKSKLTMSLGYKDGNYPSESQVPIYTSQDVTAKYAVKLRLKGELLVSGDEWMIDYVYAQLASLFQPYPPANFPEVFMCKGGMKLGTFDSFRRTCTFDITYDRSDLSFSQLYFNLFINLAGQKRENRVRLRIDKESYFELYEQSEEM”, the protein production entry was “not failed”. For “DPAVLLDRAGRVIHLNAAAAQLAPALRVRELAQFALRSPEIVTALREAIATSEPRRVTYLDHGSIERWLELIIAPVQVPTAFGGTDQCMLMTFHDLTPLRRVEEMRADFVANASHELRTPLAALSGFIDTLQGQAR” the value was “failed”. The result for “DPEEIMQVAVEKLGQGLGICRCVIYRCSADDTVATINHEFLGSGVGSIKGYPWPLKDNPLFQEVVVLKEAIAIDNIDRDPRLGEPEPSTGEVKTLVKSCAILSWMLVPIFYRERLLGMMEFHHCGPAPTEWEDDALTLVEGVATQIGVALIQAESYANLQELNEQLAALDRTRSNLVAITGHELRTP” reads “failed”.

Consider “DRCYNCGGLDHHAKECKLPPQPKKCHFCQSISHMVASCPLKAQQGPSAQG”, for which the protein production result is on record as “not failed”.

Regarding “DREREQHKREEAIQNFKALLSDMVRSSDVSWSDTRRTLRKDHRWESGSLLEREEKEKLFNEHIEALTKKKRE”, the protein production result is recorded as “not failed”. The result for “DTPEPYSEQDLWDWLRNSTDLQEPRPRAKRRPIVKTGKFKKMFGWGDFHSNIKTVKLNLLITGKIVDHGNGTFSVYFRHNSTGQGNVSVSLVPPTKIVEFDLAQQTVIDAKDSKSFNCRIEYEKVDKATKNTLCNYDPSKTCYQEQTQSHVSWLCSKPFKVICIYISFYSTDYKLVQKVCPDYNYHSDTPYFPSG” reads “failed”; that for “DVAYELPAHTTRAQLSIDLVNNGDVEQQEKINSMRFIVFGSTPGGVRLDVNEHILLSTPETATDIDAQLLEVTSSNDILVVVIANEPQSLTSQLDGIANLLTLQEMIYDISSILNSDGQIISATGMPMTGVIRDISIAPDETKTVQMVIERAVARVDVFIEAIDGGAVTGYTAGSTSVTLHNFSHDSYFVMGNVGNGTRDNADSSKNYGKVKEDVSESNLLTHSWTAATTETWAYSSAPGAENRKLLCSFYTAERLFKSDYSDRLSISMANVLKGPSDVTGITGKVIESVTKVDGTGSPTAQPFTEIRRNNVYQVTARVGKIGIQILTISVEDWGERQDIDLDMDL”, “not failed”. Consider “DVRVKFEHRGEKRILQFPRPVKLEDLRSKAKIAFGQSMDLHYTNNELVIPLTTQDDLDKAVELLDRSIHMKSLKILLVINGSTQATNLEP”, for which the protein production entry is listed as “not failed”. As for “DWLDLNTTSSVETGQAIVTLDDAQIALNGIYRLASGHSYYGDNYWYYGDCRAADVQARITKGDGKRVSPYYEYNVLASDNLNIVLPWNTVYKVIRQTNNLIQKIESGSIQSSDTKELNRIKSEALVMRGLSLFNLTRLFGMPYTNDKGASLGVPIETSPSDPTHKPSRSTVAQCYEQVVSDMSNALSGLRQETSNGYINYWAAQALLSRVYLNMGEYQKAYDAATDVIKNNGGRYQLYSYEEYPNVWGQDFQSESLFELYITLSEPSGGTGGEGAPMVYANEATVDWNNLILSEDFLNLLNEDPKDVRHCLTKESVIENNTGLPAAAMHEKVYLAKFPGKTGDDPKTNNICIIRLSEVYLNAAEAGLKKGTDIEEAQGYLNDIISRRTTDTSQQVSTETFTLDRILKERRKELVGEGEVFYDYLRNGLAIERKGSWHLETLKASNAQKIEATDLRIALPIPQSEIDANPNIQQNPR”, the protein production entry is “not failed”. For “EADYKQATALELATLVREKKVTSEELVKIALAITKRENPTLNAVITLREEAALTEAKALQDTGQPFLGVPLLLKGLGQSLKGESNTNGFGFLQDQVAGGTSTFVKALQNAGFIIIGQTNYPELGWKNISDSKLYGVSVNPWNPNHYSGGSSGGAGASVAAAFVPIASGSDAGGSIRIPASWTGTVGLKPSRGVIIGNSNSAKGQTVHFGLSRTVADTNALFETLLTKKDLPAGHLSQAQPIAYTTESPAGTPISAEAKEAVAEAVAFLKDQGYTLVEVKHPVDGERLMKNYYTVAAGSAGIADFMARQKLKRPLERNDVELLTWALFQTGKNITSEETTAAWTDIALQAQAMDEFYQQYPILLTPTTAATAPSIDNPLLKPEHAAQMEKIDQLSPAEQKQLIYDQWLTAFTYTPFTQQANLFGHPALSVPTYVSKEGLPLGIQFNSALNEDRTLLQLGALFENNHK” the value was “failed”; for “EAERVSVEHTSANPTGPLHIGRARNSIIGDSIYRILSRYGYRTVRQYFVNDSGKQMISLYTAYIKYGGPITIENLLENYQKIYREMEKDQSIEKEIEKNIERYENADPEVFGTLRKIAGVMLDGIASTLKRIGIEFDEFDWESDLLLNGSVRKAIDMLETKEEDSARYIEISGKKVFLTRKDGTTLYFARDIAYHLFKAENSEWIIDVLGEDHKDHAKSLNHVLKEMLKLENRVSFMYYSFITLETGKMSTRRGNIVTLQDLVDRTYDEALKIVNEKRPDLSEEERKKIAEVIASSAVRYSIIRVSAPKPITFRWEEALNFESNSAPFIMYS”, “failed”; for “EAGYEAGTEYLNLDEQPATILDAEHLGIETKEPITIIERLRTANHKPVVYCLDKIAKTYLTCTDYQQSSGSMLEAIKASTNHQIMHAEMDLEAISYEPHISEVLNASPHEGLMLLKVVHYDEKHQPILYSLNYIKSSLVKFTITKSE”, “not failed”. The result for “EDLSAQPVQTKFPAYERVVLREAGFLRPVTIFGPIADVAREKLAREEPDIYQIAKSEPRDAGTDQRSSGIIRLHTIKQIIDQDKHALLDVTPNAVDRLNYAQWYPIVVFLNPDSKQGVKTMRMRLCPESRKSARKLYERSHKLRKNNHHLFTTTINLNSMNDGWYGALKEAIQQQQNQLVWVSEGKADGAT” reads “failed”.
